Measurements: patent US20160264649A1

How the values were obtained:
Assay in all cases: cell-based or functional assay
[1] = target: HIV-1 Env of isolate MGRM-D-029 (subtype D) (HIV-1)
[2] = target: HIV-1 Env of pseudovirus isolate MGRM-G-015 (subtype G) (HIV-1)
[3] = target: HIV-1 Env of isolate MGRM-F1-014 (subtype F) (HIV-1)
[4] = target: envelope of aMLV pseudovirus (negative control)
[5] = target: HIV-1 Env of isolate 98CN006 (subtype CRF08_BC) (HIV-1)
[6] = target: HIV-1 Env of isolate MGRM-D-001 (subtype D) (HIV-1)
[7] = target: HIV-1 Env of isolate MGRM-F1-017 (subtype F) (HIV-1)
[8] = target: HIV-1 Env of isolate MGRM-F1-013 (subtype F) (HIV-1)
[9] = target: HIV-1 Env of isolate MGRM-F1-022 (subtype F) (HIV-1)
[10] = target: HIV-1 Env of pseudovirus isolate MGRM-G-014 (subtype G) (HIV-1)
[11] = target: HIV-1 Env of pseudovirus isolate MGRM-G-028 (subtype G) (HIV-1)
[12] = target: HIV-1 Env of isolate 98CN009 (subtype CRF07_BC) (HIV-1)
[13] = target: HIV-1 Env of isolate 92UG046 (subtype D) (HIV-1)
[14] = target: HIV-1 Env of isolate MGRM-D-005 (subtype D) (HIV-1)
[15] = target: HIV-1 Env of pseudovirus isolate MGRM-G-019 (subtype G) (HIV-1)
[16] = target: HIV-1 Env of isolate MGRM-F1-016 (subtype F) (HIV-1)
[17] = target: HIV-1 Env of isolate MGRM-F1-004 (subtype F) (HIV-1)
[18] = target: HIV-1 Env of isolate MGRM-F1-015 (subtype F) (HIV-1)
[19] = target: HIV-1 Env of isolate MGRM-D-004 (subtype D) (HIV-1)
[20] = target: HIV-1 Env of isolate MGRM-D-026 (subtype D) (HIV-1)
[21] = target: HIV-1 Env of pseudovirus isolate MGRM-G-027 (subtype G) (HIV-1)
[22] = target: HIV-1 Env of isolate MGRM-D-024 (subtype D) (HIV-1)
[23] = target: HIV-1 Env of pseudovirus isolate MGRM-G-009 (subtype G) (HIV-1)
[24] = target: HIV-1 Env of isolate MGRM-D-014 (subtype D) (HIV-1)
[25] = target: HIV-1 Env of isolate 92UG001 (subtype D) (HIV-1)
[26] = target: HIV-1 Env of isolate MGRM-F1-018 (subtype F) (HIV-1)
[27] = target: HIV-1 Env of pseudovirus isolate MGRM-G-025 (subtype G) (HIV-1)
[28] = target: HIV-1 Env of pseudovirus isolate MGRM-G-011 (subtype G) (HIV-1)
[29] = target: HIV-1 Env of isolate MGRM-D-011 (subtype D) (HIV-1)
[30] = target: HIV-1 Env of pseudovirus isolate MGRM-G-024 (subtype G) (HIV-1)
[31] = target: HIV-1 Env of isolate MGRM-D-016 (subtype D) (HIV-1)
[32] = target: HIV-1 Env of isolate MGRM-F1-021 (subtype F) (HIV-1)
[33] = target: HIV-1 Env of isolate MGRM-F1-012 (subtype F) (HIV-1)
[34] = target: HIV-1 Env of isolate MGRM-D-003 (subtype D) (HIV-1)
[35] = target: HIV-1 Env of isolate 92UG024 (subtype D) (HIV-1)
[36] = target: HIV-1 Env of isolate MGRM-D-008 (subtype D) (HIV-1)
[37] = target: HIV-1 Env of isolate MGRM-F1-008 (subtype F) (HIV-1)
[38] = target: HIV-1 Env of isolate MGRM-D-020 (subtype D) (HIV-1)
[39] = target: HIV-1 Env of isolate MGRM-D-012 (subtype D) (HIV-1)
[40] = target: HIV-1 Env of pseudovirus isolate MGRM-G-017 (subtype G) (HIV-1)
[41] = target: HIV-1 Env of isolate MGRM-F1-023 (subtype F) (HIV-1)
[42] = target: HIV-1 Env of isolate 92UG005 (subtype D) (HIV-1)
[43] = target: HIV-1 Env of pseudovirus isolate MGRM-G-013 (subtype G) (HIV-1)
[44] = target: HIV-1 Env of pseudovirus isolate MGRM-G-006 (subtype G) (HIV-1)
[45] = target: HIV-1 Env of isolate MGRM-D-021 (subtype D) (HIV-1)
[46] = target: HIV-1 Env of isolate MGRM-D-028 (subtype D) (HIV-1)
[47] = target: HIV-1 Env of isolate MGRM-F1-020 (subtype F) (HIV-1)
[48] = target: HIV-1 Env of isolate MGRM-D-018 (subtype D) (HIV-1)
[49] = target: HIV-1 Env of pseudovirus isolate MGRM-G-004 (subtype G) (HIV-1)
[50] = target: HIV-1 Env of pseudovirus isolate MGRM-G-001 (subtype G) (HIV-1)
[51] = target: HIV-1 Env of isolate MGRM-F1-010 (subtype F) (HIV-1)
[52] = target: HIV-1 Env of isolate MGRM-D-013 (subtype D) (HIV-1)
[53] = target: HIV-1 Env of isolate MGRM-F1-006 (subtype F) (HIV-1)
[54] = target: HIV-1 Env of isolate MGRM-D-002 (subtype D) (HIV-1)
[55] = target: HIV-1 Env of pseudovirus isolate MGRM-G-016 (subtype G) (HIV-1)
[56] = target: HIV-1 Env of isolate 92UG114 (subtype D) (HIV-1)
[57] = target: HIV-1 Env of isolate MGRM-D-019 (subtype D) (HIV-1)
[58] = target: HIV-1 Env of isolate MGRM-D-022 (subtype D) (HIV-1)

B1: PGT-136 (antibody, V domains shown)
VH: QLQLQESGPGLVKPSETLSLTCTVSGGSMRGTDWGENDFHYGWIRQSSAKGLEWIGSIHWRGRTTHYKTSFRSRATLSIDTSNNRFSLTFSFVTAADTAVYYCARHKYHDIFRVVPVAGWFDPWGQGLLVTVSS
VL: EIVMTQSPPTLSVSPGETATLSCRASQNVKNNLAWYQLKPGQAPRLLIFDASSRAGGIPDRFSGSGYGTDFTLTVNSVQSEDFGDYFCQQYEEWPRTFGQGTKVDIK
- IC50 (neutralization) [1]: > 50 µg/mL
- IC50 [2]: > 50 µg/mL
- IC50 (neutralization) [3]: > 50 µg/mL
- IC50 [4]: > 50 µg/mL
- IC50 (neutralization) [5]: 0.406 µg/mL
- IC50 (neutralization) [6]: > 50 µg/mL
- IC50 (neutralization) [7]: > 50 µg/mL
- IC50 (neutralization) [8]: > 50 µg/mL
- IC50 (neutralization) [9]: 2.42 µg/mL
- IC50 [10]: > 50 µg/mL
- IC50 [11]: > 50 µg/mL
- IC50 (neutralization) [12]: 0.428 µg/mL
- IC50 (neutralization) [13]: > 50 µg/mL
- IC50 (neutralization) [14]: > 50 µg/mL
- IC50 [15]: 44.3 µg/mL
- IC50 (neutralization) [16]: > 50 µg/mL
- IC50 (neutralization) [17]: > 50 µg/mL
- IC50 (neutralization) [18]: > 50 µg/mL
- IC50 (neutralization) [19]: > 50 µg/mL
- IC50 (neutralization) [20]: > 50 µg/mL
- IC50 [21]: 45.2 µg/mL
- IC50 (neutralization) [22]: > 50 µg/mL
- IC50 [23]: > 50 µg/mL
- IC50 (neutralization) [24]: > 50 µg/mL
- IC50 (neutralization) [25]: > 50 µg/mL
- IC50 (neutralization) [26]: > 50 µg/mL
- IC50 [27]: > 50 µg/mL
- IC50 [28]: > 50 µg/mL
- IC50 (neutralization) [29]: > 50 µg/mL
- IC50 [30]: 0.152 µg/mL
- IC50 (neutralization) [31]: > 50 µg/mL
- IC50 (neutralization) [32]: > 50 µg/mL
- IC50 (neutralization) [33]: > 50 µg/mL
- IC50 (neutralization) [34]: > 50 µg/mL
- IC50 (neutralization) [35]: 0.052 µg/mL
- IC50 (neutralization) [36]: > 50 µg/mL
- IC50 (neutralization) [37]: > 50 µg/mL
- IC50 (neutralization) [38]: > 50 µg/mL
- IC50 (neutralization) [39]: > 50 µg/mL
- IC50 [40]: > 50 µg/mL
- IC50 (neutralization) [41]: > 50 µg/mL
- IC50 (neutralization) [42]: > 50 µg/mL
- IC50 [43]: > 50 µg/mL
- IC50 [44]: > 50 µg/mL
- IC50 (neutralization) [45]: > 50 µg/mL
- IC50 (neutralization) [46]: > 50 µg/mL
- IC50 (neutralization) [47]: 9.31 µg/mL
- IC50 (neutralization) [48]: > 50 µg/mL
- IC50 [49]: > 50 µg/mL
- IC50 [50]: 8.11 µg/mL
- IC50 (neutralization) [51]: > 50 µg/mL
- IC50 (neutralization) [52]: > 50 µg/mL
- IC50 (neutralization) [53]: > 50 µg/mL
- IC50 (neutralization) [54]: > 50 µg/mL
- IC50 [55]: > 50 µg/mL
- IC50 (neutralization) [56]: > 50 µg/mL
- IC50 (neutralization) [57]: > 50 µg/mL
- IC50 (neutralization) [58]: > 50 µg/mL
